The chains are these.
B1: Ferredoxin--NADP reductase (Anabaena sp. (strain PCC 7119)), P21890 (parent)
chain: MSNQGAFDGAANVESGSRVFVYEVVGMRQNEETDQTNYPIRKSGSVFIRVPYNRMNQEMQRITRLGGKIVTIQTVSALQQLNGRTTIATVTDASSEIAKSEGNGKATPVKTDSGAKAFAKPPAEEQLKKKDNKGNTMTQAKAKHADVPVNLYRPNAPFIGKVISNEPLVKEGGIGIVQHIKFDLTGGNLKYIEGQSIGIIPPGVDKNGKPEKLRLYSIASTRHGDDVDDKTISLCVRQLEYKHPESGETVYGVCSTYLTHIEPGSEVKITGPVGKEMLLPDDPEANVIMLATGTGIAPMRTYLWRMFKDAERAANPEYQFKGFSWLVFGVPTTPNILYKEELEEIQQKYPDNFRLTYAISREQKNPQGGRMYIQDRVAEHADELWQLIKNQKTHTYICGLRGMEEGIDAALSAAAAKEGVTWSDYQKDLKKAGRWHVETY
B2: Ferredoxin--NADP reductase, leaf isozyme, chloroplastic (Pisum sativum (Garden pea)), P10933 (parent)
chain: MAAAVTAAVSLPYSNSTSLPIRTSIVAPERLVFKKVSLNNVSISGRVGTIRAQVTTEAPAKVVKHSKKQDENIVVNKFKPKEPYVGRCLLNTKITGDDAPGETWHMVFSTEGEVPYREGQSIGIVPDGIDKNGKPHKLRLYSIASSAIGDFGDSKTVSLCVKRLVYTNDAGEVVKGVCSNFLCDLKPGSEVKITGPVGKEMLMPKDPNATVIMLGTGTGIAPFRSFLWKMFFEKHEDYQFNGLAWLFLGVPTSSSLLYKEEFEKMKEKAPENFRLDFAVSREQVNDKGEKMYIQTRMAQYAEELWELLKKDNTFVYMCGLKGMEKGIDDIMVSLAAKDGIDWIEYKRTLKKAEQWNVEVY

The variants in the first test derive from B1. Conditions: with fer1_nosso petF.
Regarding Y440F, the “effect of a mutation on the interaction” value was “increasing interaction”.

Another test covers variants of B1. The following applies: with fer1_nosso petF. This is another data set of the same source.
On to Y440W, for which the “effect of a mutation on the interaction” value is recorded as “increasing interaction”.

With Y440S, the “effect of a mutation on the interaction” value is “increasing interaction”.

In another test the parent is B2. The following applies: with fer1_pea PETF.
MAAAVTAAVSLPYSNSTSLPIRTSIVAPERLVFKKVSLNNVSISGRVGTIRAQVTTEAPAKVVKHSKKQDENIVVNKFKPKEPYVGRCLLNTKITGDDAPGETWHMVFSTEGEVPYREGQSIGIVPDGIDKNGKPHKLRLYSIASSAIGDFGDSKTVSLCVKRLVYTNDAGEVVKGVCSNFLCDLKPGSEVKITGPVGKEMLMPKDPNATVIMLGTGTGIAPFRSFLWKMFFEKHEDYQFNGLAWLFLGVPTSSSLLYKEEFEKMKEKAPENFRLDFAVSREQVNDKGEKMYIQTRMAQYAEELWELLKKDNTFVYMCGLKGMEKGIDDIMVSLAAKDGIDWIEYKRTLKKAEQWNVEVS [Y360S]: the “effect of a mutation on the interaction” value is listed as “increasing interaction”.

As to MAAAVTAAVSLPYSNSTSLPIRTSIVAPERLVFKKVSLNNVSISGRVGTIRAQVTTEAPAKVVKHSKKQDENIVVNKFKPKEPYVGRCLLNTKITGDDAPGETWHMVFSTEGEVPYREGQSIGIVPDGIDKNGKPHKLRLYSIASSAIGDFGDSKTVSLCVKRLVYTNDAGEVVKGVCSNFLCDLKPGSEVKITGPVGKEMLMPKDPNATVIMLGTGTGIAPFRSFLWKMFFEKHEDYQFNGLAWLFLGVPTSSSLLYKEEFEKMKEKAPENFRLDFAVSREQVNDKGEKMYIQTRMAQYAEELWELLKKDNTFVYMCGLKGMEKGIDDIMVSLAAKDGIDWIEYKRTLKKAEQWNVEVW [Y360W], the “effect of a mutation on the interaction” value is reported as “increasing interaction”.
